Results from paper PMC7725785 (2020).
Like-named read-outs stand apart in the source and are kept apart here. Blank lines part the entries; values can stand above or below the binder they belong to. Where no end group is shown, it is not given here. [ ]: non-standard residue; d: D form.

Assays:
Assay in all cases: SPR
[1] = target: T1, GST-tagged TRIB3 (human, UniProt Q96RU7 1-358)
T1 chain: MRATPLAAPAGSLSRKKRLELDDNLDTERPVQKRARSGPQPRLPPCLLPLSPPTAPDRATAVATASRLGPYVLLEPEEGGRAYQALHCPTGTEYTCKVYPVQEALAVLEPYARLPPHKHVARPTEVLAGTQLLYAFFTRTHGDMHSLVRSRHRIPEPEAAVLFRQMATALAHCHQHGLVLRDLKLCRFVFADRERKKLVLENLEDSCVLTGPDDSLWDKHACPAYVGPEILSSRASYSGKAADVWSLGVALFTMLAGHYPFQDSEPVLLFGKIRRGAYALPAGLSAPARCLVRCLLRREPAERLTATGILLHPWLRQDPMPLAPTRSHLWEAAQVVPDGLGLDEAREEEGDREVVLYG

[2] = target: T1, GST-tagged TRIB3
[3] = target: T2, MAX protein (SPR) (human, UniProt P61244 1-160)
[4] = target: T1, GST-tagged TRIB3
[5] = target: T2, MAX protein (SPR); remark: listed apart in the source

T2 sequence (P61244 whole entry): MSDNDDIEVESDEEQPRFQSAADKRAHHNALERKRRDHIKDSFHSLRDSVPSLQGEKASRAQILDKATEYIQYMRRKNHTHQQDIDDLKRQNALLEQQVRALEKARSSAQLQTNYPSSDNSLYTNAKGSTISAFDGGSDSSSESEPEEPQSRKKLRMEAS

B1: CM2 peptide (peptide)
peptide: [dK][dV][dV][dI][dL][dK][dK][dA][dT][dA][dY][dI][dL][dS][dV]
koff [1]: 0.0166 s⁻¹ | Kd [2]: 8.17 µM

B3: CM3 peptide (peptide)
peptide: [dQ][dA][dE][dE][dQ][dK][dL][dI][dS][dE][dE][dD][dL][dL][dR]
koff [1]: 0.000434 s⁻¹ | Kd [2]: 0.707 µM

Other lines, results leading:

koff [3]: 0.0417 s⁻¹ | koff [4]: 0.0769 s⁻¹ | Kd [5]: 12.8 µM
B2: CM4 peptide (peptide)
peptide: [dK][dR][dR][dE][dQ][dL][dK][dH][dK][dL][dE][dQ][dL][dR]

koff [1]: 0.00531 s⁻¹ | koff [3]: 0.0099 s⁻¹ | Kd [2]: 3.4 µM | Kd [5]: 0.897 µM
B4: CM1 peptide (peptide)
peptide: [dE][dR][dQ][dR][dR][dN][dE][dL][dK][dR][dS][dF][dF][dA][dL][dR]
